Experimental findings from US20230055694A1 (INSTIL BIO UK, published 2023) are described below.

One experiment concerns the target T1, rhCEACAM5-Fc (human, UniProt P06731 35-685).
T1 construct: Bought staining reagent; construct limits and Fc not described; also called primary rhCEACAM5-Fc antibody; CEA.hFc protein; not shown: Fc tag detected with anti-IgG-Fc-PE
T1 sequence (looked up): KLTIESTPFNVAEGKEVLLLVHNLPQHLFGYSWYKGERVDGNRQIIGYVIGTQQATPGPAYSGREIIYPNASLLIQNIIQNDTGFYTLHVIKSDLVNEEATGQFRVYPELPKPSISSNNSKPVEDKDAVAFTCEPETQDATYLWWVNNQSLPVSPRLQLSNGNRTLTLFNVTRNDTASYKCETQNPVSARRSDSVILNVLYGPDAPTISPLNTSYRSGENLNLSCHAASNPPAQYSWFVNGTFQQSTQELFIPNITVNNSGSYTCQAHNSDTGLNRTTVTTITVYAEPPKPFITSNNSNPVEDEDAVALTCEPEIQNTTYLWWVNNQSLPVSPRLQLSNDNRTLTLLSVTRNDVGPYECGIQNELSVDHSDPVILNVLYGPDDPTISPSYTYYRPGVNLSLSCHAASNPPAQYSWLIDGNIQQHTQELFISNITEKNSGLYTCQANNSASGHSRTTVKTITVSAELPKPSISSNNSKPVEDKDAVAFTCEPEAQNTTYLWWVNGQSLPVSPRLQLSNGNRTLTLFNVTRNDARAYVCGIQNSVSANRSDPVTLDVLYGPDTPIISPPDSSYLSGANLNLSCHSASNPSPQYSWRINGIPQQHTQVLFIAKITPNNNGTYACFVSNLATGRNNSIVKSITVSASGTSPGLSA
In words: flow cytometry of transduced T cells: CoStAR detected with primary rhCEACAM5-Fc and secondary anti-IgG-Fc-PE (FIG. 26). A general note: A flow cytometer gives signals particle by particle.

Experiment [1] concerns the target Human folate receptor alpha (FolR) on cells (human) (UniProt P15328). In words: cell-based or functional assay.

Sequence of Human folate receptor alpha (FolR) on cells (human) (P15328 25-234): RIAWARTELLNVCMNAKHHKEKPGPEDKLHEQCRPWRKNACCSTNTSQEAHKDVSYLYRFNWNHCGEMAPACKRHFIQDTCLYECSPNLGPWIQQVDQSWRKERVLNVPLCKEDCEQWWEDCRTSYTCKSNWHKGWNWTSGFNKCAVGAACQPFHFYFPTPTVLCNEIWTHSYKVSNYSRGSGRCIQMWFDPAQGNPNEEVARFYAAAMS

B1: anti-CEA CoStAR CTP232 (OSM1 signal peptide, hMFE23 scFv, AAAGSGGSG linker, CD8 EC spacer, CD8 TM, CD28.CD40) (receptor)
chain: QVKLEQSGAEVVKPGASVKLSCKASGFNIKDSYMHWLRQGPGQRLEWIGWIDPENGDTEYAPKFQGKATFTTDTSANTAYLGLSSLRPEDTAVYYCNEGTPTGPYYFDYWGQGTLVTVSSGGGGSGGGGSGGGGSENVLTQSPSSMSASVGDRVNIACSASSSVSYMHWFQQKPGKSPKLWIYSTSNLASGVPSRFSGSGSGTDYSLTISSMQPEDAATYYCQQRSSYPLTFGGGTKLEIKAAAGSGGSGFVPVFLPAKPTTTPAPRPPTPAPTIASQPLSLRPEACRPAAGGAVHTRGLDFACDIYIWAPLAGTCGVLLLSLVITLYCNHRNRSKRSRLLHSDYMNMTPRRPGPTRKHYQPYAPPRDFAAYRSKKVAKKPTNKAPHPKQEPQEINFPDDLPGSNTAAPVQETLHGCQPVTQEDGKESRISVQERQ
notes: On transduced human T cells
Turning to B1, in the experiment with rhCEACAM5-Fc, the binding result was “binds”.

B2: MOV19.CD28.CD40 CoStAR (receptor, part only; not given: tag, linker, CD28 and CD40 parts, part only)
chain, part: QVQLQQSGAELVKPGASVKISCKASGYSFTGYFMNWVKQSHGKSLEWIGRIHPYDGDTFYNQNFKDKATLTVDKSSNTAHMELLSLTSEDFAVYYCTRYDGSRAMDYWGQGTTVTVSSGGGGSGGGGSGGGGSDIELTQSPASLAVSLGQRAIISCKASQSVSFAGTSLMHWYHQKPGQQPKLLIYRASNLEAGVPTRFSGSGSKTDFTLNIHPVEEEDAATYYCQQSREYPYTFGGGTKLEIK
On to B2, for which, in experiment [1], the CD137 expression stood at 50%, the CD137 expression of CoStAR+ TIL after coculture with FolR high expressing tumour digest turned out to be 50%, the CD137 expression of CoStAR+ TIL after coculture with FolR low expressing tumour digest was greater than 20% and the IL-2 production was determined as 5%. Moreover, in experiment [1], the TNFα production came out at 15%, the enhancement of Bcl-XL induction in the presence of OvCAR-OKT3 was 35% and the mean fold expansion of transduced T cells over 21 days with OvCAR-OKT3 (CA125+/Folate receptor+/CEA-) turned out to be 1300 fold.

B3: MOV19.CD28 CoStAR (receptor, part only; not given: tag, linker and CD28 part, part only)
chain, part: QVQLQQSGAELVKPGASVKISCKASGYSFTGYFMNWVKQSHGKSLEWIGRIHPYDGDTFYNQNFKDKATLTVDKSSNTAHMELLSLTSEDFAVYYCTRYDGSRAMDYWGQGTTVTVSSGGGGSGGGGSGGGGSDIELTQSPASLAVSLGQRAIISCKASQSVSFAGTSLMHWYHQKPGQQPKLLIYRASNLEAGVPTRFSGSGSKTDFTLNIHPVEEEDAATYYCQQSREYPYTFGGGTKLEIK
With B3, in experiment [1], the enhancement of Bcl-XL induction in the presence of OvCAR-OKT3 was found to be 20%, the enhancement of IL-2 induction in the presence of OvCAR-OKT3 worked out at 20% and the mean fold expansion of transduced T cells over 21 days with OvCAR-OKT3 (CA125+/Folate receptor+/CEA-) was determined as 187 fold.

B4: anti-CEA CoStAR CTP244 (OSM1 signal peptide, hMFE23 scFv, AAAGSGGSG linker, CD28 (trunc IIH) spacer, CD28 TM, CD28.CD40) (receptor)
chain: QVKLEQSGAEVVKPGASVKLSCKASGFNIKDSYMHWLRQGPGQRLEWIGWIDPENGDTEYAPKFQGKATFTTDTSANTAYLGLSSLRPEDTAVYYCNEGTPTGPYYFDYWGQGTLVTVSSGGGGSGGGGSGGGGSENVLTQSPSSMSASVGDRVNIACSASSSVSYMHWFQQKPGKSPKLWIYSTSNLASGVPSRFSGSGSGTDYSLTISSMQPEDAATYYCQQRSSYPLTFGGGTKLEIKAAAGSGGSGIIHVKGKHLCPSPLFPGPSKPFWVLVVVGGVLACYSLLVTVAFIIFWVRSKRSRLLHSDYMNMTPRRPGPTRKHYQPYAPPRDFAAYRSKKVAKKPTNKAPHPKQEPQEINFPDDLPGSNTAAPVQETLHGCQPVTQEDGKESRISVQERQ
notes: On transduced human T cells
As to B4, the binding result in the experiment with rhCEACAM5-Fc is “binds”.
